Data taken from PMC10720983.

Molecular target: DtpM (dithiolopyrrolone methyltransferase) (Saccharothrix algeriensis)
Assay: SEC-MALS

Substance: DtpM (dithiolopyrrolone methyltransferase) (enzyme)
- stoichiometry N: 2
